Test results from US20240092891A1.
Like-named read-outs stand apart in the source and are kept apart here.

How the values were obtained:
Assay in all cases: flow cytometry on human CLDN18.1-HEK293 cells, antibody at 100 µg/mL
human CLDN18.1 (human) [1] = biological target: human CLDN18.1 (human) (UniProt P56856)
human CLDN18.1 (human) [2] = biological target: human CLDN18.1 (human) (UniProt P56856); remark: listed apart in the source
human CLDN18.1 (human) [3] = biological target: human CLDN18.1 (human) (UniProt P56856); remark: listed apart in the source

human CLDN18.1 (human), sequence (P56856 whole entry): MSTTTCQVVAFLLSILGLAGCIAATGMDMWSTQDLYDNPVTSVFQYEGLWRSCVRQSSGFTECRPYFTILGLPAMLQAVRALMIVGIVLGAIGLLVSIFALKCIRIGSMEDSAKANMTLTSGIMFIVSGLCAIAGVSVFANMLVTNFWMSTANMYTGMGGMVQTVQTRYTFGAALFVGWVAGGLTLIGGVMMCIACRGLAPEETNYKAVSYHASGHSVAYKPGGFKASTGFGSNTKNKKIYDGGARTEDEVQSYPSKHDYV

irrelevant control hIgG1 (antibody) gave a positive rate of cell binding (human CLDN18.1 (human) [1]) of 0.067%, a positive rate of cell binding (human CLDN18.1 (human) [2]) of 0.851% and a positive rate of cell binding (human CLDN18.1 (human) [3]) of 0.049%.
